Laboratory results taken from patent US20110044986A1 (Amgen, published 2011).

Assays:
[1] = target: amyloid plaques in unfixed Tg2576 mouse brain sections (human, UniProt P05067 672-713, limits assumed); experiment: cell-based or functional assay
[2] = target: T1, Aβ42 oligomers (human); experiment: immunoprecipitation / Western blot
T1 construct: Soluble oligomers prepared from Aβ42 peptide in Ham's F-12; dimer, trimer and tetramer were seen on the blot; also called soluble, oligomeric species of Aβ42; Aβ42 dimer, trimer, and tetramer

[3] = target: T2, human Aβ40 fibrils (human); experiment: ELISA, fibrils dried on plate, europium TRF
T2 construct: Fibrillar aggregate of the 40-residue peptide prepared in vitro; also called Fibrillar Aβ40; Aβ40 amyloid fibrils
Method: (§1) The fibrils (Aβ or collagen) were diluted to 10 μg/ml in water and mixed thoroughly. The solution was aliquoted into the wells of a microtiter plate (Immulon-2; VWR; Cat # 62404-972) at 50 μl per well (resulting in 0.5 μg fibrils/well final). The plate was dried overnight by being placed uncovered in a 37° C. incubator.
(§2) The wells were blocked with 200 μl of blocking solution and incubated for ≧1 hour at room temperature (RT) with shaking. The blocking solution was flicked out and gently dried on a paper towel. 100 μl of primary antibody diluted in PBS containing 10% blocking solution was added to each well and the plate was incubated at RT for 1 hour with shaking. The plate was washed with 5-10× in TBS, pH 7.5+0.05% Tween 20. 100 μl of secondary antibodies (each diluted 1-2,000-fold in PBS) was added to each well and the plate was incubate at RT for 1 hour with shaking. The plate was washed with 5-10× in TBS, pH 7.5+0.05% Tween 20. 100 μl Streptavidin-Europium reagent (1-1,000-fold dilution) was added (100 μL/well) and the plate was incubated at room temperature for 45 minutes with shaking. The plate was washed 5-10× in TBS, pH 7.5+0.05% Tween 20. 120 μl Enhance Solution was added and the plate was incubated at room temperature for 15-30 minutes with shaking. The plate was read on a Victor TRF plate reader (Europium program).

[4] = target: T3, human Aβ42 fibrils (human); experiment: ELISA, fibrils dried on plate, europium TRF
T3 construct: Fibrillar aggregate of the 42-residue peptide prepared in vitro; also called Fibrillar Aβ42; Aβ42 amyloid fibrils
Method: as §1, §2

[5] = target: T4, human Aβ40 monomer (human); experiment: ELISA, monomer coated on plate, europium TRF
T4 construct: also called soluble Aβ40
Method: (§3) The same techniques were used for the coating of the microtiter plate for monomer ELISA. The fibrils Aβ monomer were diluted to 2.5 μg/ml in Coating buffer and mixed thoroughly. The solution was aliquoted into the wells of a microtiter plate [Immulon-2; VWR; Cat.# 62404-972] at 100 μl per well. The plate was sealed and incubated overnight at 4° C. The plate was washed 5-10× to remove Aβ coating solution prior to starting the assay.
as §2

[6] = target: T5, human Aβ42 monomer (human); experiment: ELISA, monomer coated on plate, europium TRF
T5 construct: also called soluble Aβ42; monomeric Aβ42
Method: as §3, §2

[7] = target: T2, human Aβ40 fibrils; experiment: BIAcore, fibrils immobilized, antibody injected (avidity)
Method: (§4) Preparation of Biacore Chip Surfaces: Immobilization of Proteins to a BIAcore sensor chip (CM5) was performed according to manufacturer's instructions. Briefly, carboxyl groups on the sensor chip surfaces were activated by injecting 60 μL of a mixture containing 0.2 M N-ethyl-N′-(dimethylaminopropyl) carbodiimide (EDC) and 0.05 M N-hydroxysuccinimide (NHS). Specific surfaces were obtained by injecting rProtein G (Pierce), goat anti-mouse Fc (Jackson Immuno Research Lab) or Aβ aggregates diluted in 10 mM acetate, pH 4.0 at concentrations between 5 and 20 μg/mL. Excess reactive groups on the surfaces were deactivated by injecting 60 μL of 1 M ethanolamine. […] A blank, mock-coupled reference surface was also prepared on the sensor chips for background subtraction.
(§5) Kinetic analysis of antibodies binding to immobilized Aβ fibrils: Avidity measurements to Aβ fibrils were made by immobilizing amyloid fibrils on the sensor chip surface followed by injection of antibody solutions over the surface, and injection of antibody solutions over a blank surface for background subtraction. Antibodies were diluted in PBS+0.005% P-20+0.1 mg/mL BSA at concentrations varying from 100 nM to 0.2 nM.

[8] = target: T3, human Aβ42 fibrils; experiment: as above
Method: as §4, §5

[9] = target: T4, human Aβ40 monomer; experiment: BIAcore, antibody captured on protein G, Aβ monomer injected
Method: as §4
(§6) Kinetic analysis of Aβ monomers binding to protein G captured antibodies: The kinetic analysis of the interaction between Aβ monomers and antibodies was performed as follows: Antibodies to be tested were diluted in PBS+0.005% P-20+0.1 mg/mL BSA and injected over the immobilized protein G Fc surface. Aβ monomers were diluted in PBS+0.005% P-20+0.1 mg/mL BSA from 1000 nM to 2 nM, and each concentration was injected over the captured antibody surfaces.

[10] = target: T5, human Aβ42 monomer; experiment: as above
Method: as §4, §6

[11] = target: T2, human Aβ40 fibrils; experiment: BIAcore, fibrils immobilized, antibody injected
Method: as §4, §5

[12] = target: T3, human Aβ42 fibrils; experiment: BIAcore, fibrils immobilized, antibody injected
Method: as §4, §5

T4 sequence (peptide, as listed by the source): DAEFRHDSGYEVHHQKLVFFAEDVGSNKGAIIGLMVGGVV
T3 sequence (peptide, as listed by the source): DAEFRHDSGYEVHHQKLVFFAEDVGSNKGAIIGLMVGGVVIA

EC50 [3] [nM]	EC50 [4] [nM]	EC50 [5] [nM]	EC50 [6] [nM]	Kd [7] [nM]	koff [7] [s⁻¹]	kon [7] [M⁻¹ s⁻¹]	Kd [8] [nM]	koff [8] [s⁻¹]	kon [8] [M⁻¹ s⁻¹]	Kd [9] [nM]	Kd [10] [nM]	koff [11] [s⁻¹]	koff [12] [s⁻¹]	also measured	Binder
0.09	0.071	0.615	0.052	0.1	0.00042	3.8e+06	2.9	0.0005	170000	> 200	> 20			EC50 of ex vivo phagocytosis [1]: 2 µg/mL; binding result [2]: binds	antibody 1.7 (antibody, V domains shown, Human antibody from a Xenomouse hybridoma (IgG1 or IgG4 strains); also called Ab 1.7; human antibody 1.7) VH: QVTLKESGPVLVKPTETLTLTCTVSGFSLSNARMSVSWIRQPPGKALEWLAHIFSNDEKSYSTSLKSRLTISKDTSKSQVVLTMTNMDPVDTATYYCARIRGTVGFDYWGQGTLVTVSS VL: not shown
0.133	0.082	0.054	0.045	0.02	8.1e-05	4.2e+06	0.8	0.00016	200000	117	16			koff [9]: 0.015 s⁻¹; kon [9]: 130000 M⁻¹ s⁻¹; koff [10]: 0.0039 s⁻¹; kon [10]: 240000 M⁻¹ s⁻¹	antibody 1.1 (antibody, human IgG1, kappa, V domains shown, also called Ab 1.1; human antibody 1.1) VH: QVTLKESGPVLVKPTETLTLTCTVSGFSLSNARMSVSWIRQPPGKALEWLAHIFSNDEKSYSTSLKSRLTISKDTSKSQVVLTMTNMDPVDTATYYCARIRGTVGYDYWGQGTLVTVSS VL: not shown
0.115	0.086	0.689	0.056	0.06	0.00017	2.9e+06	1.7	0.00019	170000	> 200	14			binding result [2]: binds; koff [10]: 0.0011 s⁻¹; kon [10]: 78000 M⁻¹ s⁻¹	antibody 1.2 (antibody, human IgG1, kappa, V domains shown, also called Ab 1.2; human antibody 1.2) VH: QVTLKESGPVLLKPTETLTLTCTVSGFSLSNARMGVSWIRQPPGKALEWLAHIFSNDEKSYITSLKSRLTISKDTSKSQVVLTMTNMDPVDTATYYCARIPLRSPGAFDIWGQGTMVTVSS VL: DIVMTQTPLSSPVTLGQPASISCRSSQSLVHSDGNTYLNWLQQRPGQPPRLLIYKISNRFSGVPDRFTGSGAGTDFTLKISRVEAEDVGVYTCMQVTQFPLTFGQGTRLEIKR
0.195	0.096	0.042	0.037	0.03	0.00017	5.3e+06	1.8	0.00019	110000	> 200	47			koff [10]: 0.0029 s⁻¹; kon [10]: 61000 M⁻¹ s⁻¹	antibody 1.9 (antibody, human IgG1, kappa, V domains shown, also called Ab 1.9; human antibody 1.9) VH: QVTLKESGPVLVKPTETLTLTCTVSGFSLSNARMGVSWIRQPPGKALEWLAHIFSNDEKSYSTSLKSRLTISKDTFKSQVVLTMTNMDPVDTATYYCARIPLRSPGAFDIWGQGTMVTVSS VL: EIVMTQTPLSSPVTLGQPASISCRSSQSLVHSDRNTYLSWLQQRPGQPPRLLIYKISNRFSGVPDRFSGSGAGTDFTLKISRVEAEDVGVYYCMQTTQLPLTFGQGARLEIKR
												0.0013	0.00087		antibody 1.14 (antibody, V domains shown, Human anti-Aβ antibody) VH: EVQLVESGGGLVQPGGSLRLSCAASGFTFSSYSMNWVRQAPGKGLEWVSYISRSSSAIYYADSVKGRFTISRDNAKNSLYLQMNSLRDEDTAVYYCARETTVTTRFYYYYYGVDVWGQGTTVTVSS VL: DIQMTQSPSSVSASVGDRVTITCRASQGISSWLAWFQQKPGKAPKLLIYAASSLQSGVPSRFSGSGSGTDFTLTISSLQPEDFATYYCQQANSFPRTFGQGTKVEIK
												0.004	0.0026		antibody 6.18 (antibody, V domains shown, Human anti-Aβ antibody; also called Ab 6.18) VH: EVQLVESGGGLVQPGGSLRLSCAASGFTFSSYSMNWVRQAPGKGLEWLSYISSRSSTIYYADSVKGRFTISRDNAKNSLYLQMNSLRDEDTAVYYCARERTGTTRYYYYYYGMDVWGQGTTVTVSS VL: DIQMTQSPSSVSASVGDRVTITCRASQGISSWLAWSQQKPGKAPKLLIYAASSLQSGVPSRFSGSGSGTDFTLTISSLQPEDFATYYCQQANSFPRTFGQGTKVEIK
												0.005	0.0021		antibody 6.27 (antibody, V domains shown, Human anti-Aβ antibody; also called Ab 6.27) VH: QVQLQESGPGLVKPSKTLSLTCTVSGGSISSYYWSWIRQPAGKGLEWIGRIYTSGSTNLNPSLKSRVTMSIDTSKSQFSLKLSSVTAADTAVYYCARLELRNYYYGMDVWGQGTTVTVSS VL: not shown
												0.00014	0.00029		antibody 7.2 (antibody, V domains shown, Human anti-Aβ antibody; also called Ab 7.2) VH: QVQLVESGGGVVQPGRSLRLSCAASGFTFSSYGMHWVRQAPGKGLEWVAVIWYDGSNKYYADSVKGRFTISRDISKNTLYLQMNSLRAEDTAVYYCARSGPPLYSGIYYYYGMDVWGQGTTVTVSS VL: SSELTQDPAVSVALGQTVRITCQGDSLRAYYAHWYQQKPGQAPVLVIYGKNNRPSGIPDRFSGSNSGNTASLTITGAQAEDEADYYCNSRDSSGNHVVFGGGTKLTVL
												0.0008	0.00049		antibody 7.11 (antibody, V domains shown, Human anti-Aβ antibody; also called Ab 7.11) VH: QLQLQESGPGLVKPSETLSLTCTVSGGSISSSRYYWGWIRQPPGKGLEWIGSISYRGNTYYYPSLKSRVTISVDTSKNQFSLKLNSVTAADTAVYYCARRTYSSGWSYFDYWGQGTLVTVSS VL: SYELTQPYSMSVATAQMARITCGGNNIGSKAVHWYQQKPGQDPVLVIYSDSNRPSGIPERFSGSNPGNTATLTISRIEAGDEANYYCQVWDSSSDHWVFGGGTKLTVL
												8.2e-05	0.00021		antibody 7.28 (antibody, V domains shown, Human anti-Aβ antibody; also called Ab 7.28) VH: not shown VL: QSVLTQPPSVSAAPGQKVTISCSGSSSNIGNNYVFWYQQLPGTAPKLLIYDNNKRPSGIPDRFSGSKSGTSATLGITGLQTGDEADYYCGTWDSSLSAGVFGGGTKVTAL
												0.00096	0.0011		antibody 1.15 (antibody, V domains shown, Human anti-Aβ antibody) VH: not shown VL: DVVMTQSPFSLPVTLGQPASISCRSSQSLVYSDGNTSLNWFQQRPGQSPRRLIYKVSKWDSGVPDRFSGSGSGTDFTLKISRVEAEDVGVYYCMQGTHWPRGFTFGPGTKVDIK
